Assay results reported in the DeepSol protein solubility set.

Experiment: soluble on expression in E. coli; label from the status in PepcDB or PDB records

| Sequence | soluble on expression in E. coli |
| --- | --- |
| MSLKVLIIGGVAAGTKTAAKIKREMGDNCSVTILNKGDDISYAGCGLPYYVGKIIEDKSSLIVNTPESFSKLTGAEVRCGVEVTSIDRNAKQVTLKTLSTGEKENLSYDKLVIATGADPIKPPIPGIDLPGVFFMRTPNDAIKLRDSIENGIKRAVVIGGGFIGLEIAENLSAMGIRVSVVDMAEHVMPGFDTDFAEYVENHMADKGIMIFTGDQVVGIEGENKVEKLRTKNRAIKTDLVVMSVGIRPNTGFLKDTGLEFAPNNTIIADEYMLTNDKDIYVVGDCAFVKNSLTNKPTWSPMGSSANHEGRICAQNISGKSKTYNGVLGTTVVKLPELNAGKTGLSKEIAEKEGYNVCSVTIATDDKAHYYPGASNFIIRMVAEKNTRKLLGVQVMGPGAVDKIVDIAATAITLGADLYSLESMDLAYAPPFSTAIHPFVVAVNVLQNKLNGELDSVLLDEIEDFDSWTKLDVSKAPSIPSLRYIPVGEINGEIEGLAKDEKILLICAKGKNSYMAQNRLRRFGYTNTKVLEGGILFYPNLKVMEEGHHHHHH | soluble |
| MFTTKGIDISGELTMMGIPEQNSKTVTPGLHYAADGFRLSGGNANFIARNMASVTGNIYADDAATITLGQPETETPTISSAYQAWAETLLYGFDTAYRGAITAPKATVSMNNAIWHLNSQSSINRLETKDSMVRFTGDNGKFTTLTVDNLTIDDSAFVLRANLAQADQ | not soluble |
| MSLELKKFFVLVLLLGSVCPAFCGGDTLHCRFYFPVGSAIPDLSYRDNGPRLDSFLSSIRSLQERAVLRRVRLRSGASPEGNSMLNRRLSDERLVSLRAVMRERLSVPDSVLVCLSSGEDWEGLSVLVGESDMPCRDEVLRILRDTPVWVVRGGKVVDSRKRQLMNLRGGSVWRYMAEHFFPELRNCTVVECEFGPVISGNDREIAVYQKEAEARDTVILRDTVERTVVIRDTVQVPASVGNALKPFYMGLKTNLLYDALLVPNLGVEFYLGRGWSFGGNWMYAWWKSDRHHNYWRIYGGELALRKYFGRRAAEKPLAGHHLGLYGQLFTYDFEVGGTGYMGGRPGGTLWEKMNYAVGLEYGYSLPIARRLNLDFVIGVGYWGGEYHKYDPVDGCYVWKETLQRHWFGPTKAEVSLVWLLGRGNHNEKGGKEGHHHHHH | not soluble |
| MSVPAGSVSCLANALLNLRSSTDYNADHGVKNSILNFSNSKDASRFDGSESWSSSVLDKNQFIVAGSDSVKHFVAISTQGRGDHDQWVTSYKLRYTLDNVNWVEYNNGEIINANKDRNSIVTINFNPPIKARSIAIHPQTYNNHISLRWELYALPVKSYSNPSVQVGEVSIGDRSLNSGTGSRTIVRHVKFPVEFLSVPIVSIGCKKVDAHTDNGQMRWEGKSENITTKGFDLTFITWGNNAVYDLTFDYVAVEFNN | soluble |
| EKKYFEIHGVPSIIWGNPSSKLYIYIHGQCGNKEEAEAFANIAVPHECQVLSVDLPEHGERKREKNSFNPWHVVPELVSIMEYAKCHWNQISLYANSIGAWFSMLSFEKENLRECIFVSPILDMQQLISNMMLWANVSEEQLKHELIIPTSFGHTLSWEYLQYVKQHPITQWNVPTKILYGKHDELTEIGVVEKFVEKFNCNLTIIENGKHWFNTPQELNSLYEWLNTLVK | not soluble |
| MPKLVTWMNNQRVGELTKLANGAHTFKYAPEWLASRYARPLSLSLPLQRGNITSDAVFNFFDNLLPDSPIVRDRIVKRYHAKSRQPFDLLSEIGRDSVGAVTLIPEDETVTHPIMAWEKLTEARLEEVLTAYKADIPLGMIREENDFRISVAGAQEKTALLRIGNDWCIPKGITPTTHIIKLPIGEIRQPNATLDLSQSVDNEYYCLLLAKELGLNVPDAEIIKAGNVRALAVERFDRRWNAERTVLLRLPQEDMCQTFGLPSSVKYESDGGPGIARIMAFLMGSSEALKDRYDFMKFQVFQWLIGATDGHAKNFSVFIQAGGSYRLTPFYDIISAFPVLGGTGIHISDLKLAMGLNASKGKKTAIDKIYPRHFLATAKVLRFPEVQMHEILSDFARMIPAALDNVKTSLPTDFPENVVTAVESNVLRLHGRLSREYGSKLEHHHHHH | soluble |
| MSAFKKSLLVAGVAMILSNNVFADEGHGIVKFKGEVISAPCSIKPGDEDLTVNLGEVADTVLKSDQKSLAEPFTIHLQDCMLSQGGTTYSKAKVTFTTANTMTGQSDLLKNTKETEIGGATGVGVRILDSQSGEVTLGTPVVITFNNTNSYQELNFKARMESPSKDATPGNVYAQADYKIAYE | soluble |
| NTTGGRFVDKDNRKYYVKDDHKAIYWHKIDGKTYYFGDIGEMVVGWQYLEIPGTGYRDNLFDNQPVNEIGLQEKWYYFGQDGALLEQTDKQVLEAKTSENTGKVYGEQYPLSAEKRTYYFDNNYAVKTGWIYEDGNWYYLNKLGNFGDDSYNPLPIGEVAKGWTQDFHVTIDIDRSKPAPWYYLDASGKMLTDWQKVNGKWYYFGSSGSMATGWKYVRGKWYYLDNKNGDMKTGWQYLGNKWYYLRSSGAMVTGWYQDGLTWYYLNAGNGDMKTGWFQVNGKWYYAYSSGALAVNTTVDGYSVNYNGEWVQ | soluble |
| MGSDKIHHHHHHMEKLLTIVVPAYNVEKYIKNCLDSFIDLSVLRSLEILIVDDGSTDSTASLAHTYEQKYPYSFKVLSKENGGHGSTINYAIPRATGKYFKVVDGDDWLDKSLLPQFVQLLKHTHSDVISNDFNLVDDKTKKVTKRRKAVSNSYHYNREWGFAEAVMDPLITIHSMTIRTDVLQKNDIRVDEHCFYEDQEYILYPIPYCTSITFSPLPLYQYRLGRSGQSVDIKMMIKRHDQHLKVLDALFEYNNVHGNLQTYKKQYLERGIAEAVDDEYQIFLAKGNDTRNVEQMKKFDEMLREEHPGVYQACSRKSVWMLRKTGFKIFPMAAWVYSRLRGN | not soluble |
| MKKHVMLVKPFSLEDEKDSENTPPNLIQRILSLFKNVRPGSDLTNFQLPPQMNLARSQLQCYGEIVYSFDGHDLLGECSRRDKPIERMKAMVTWYISTLRPLIFGLAPYNPVIGETHHVSNGHINVLAEQISHHPPVSALHATHEKENVDVLLCQYFTPKFRGAYVDVEVKGKRVVKLLNHKETYEMNQPKLLMTFLPAMGAHWAGKIVIKCPETGLGAELQLLSDSFLSRFTGNNKRAIKGKIFESSSRKQLYEISGHWDRTVTAKNTKTGQLEVIYKASENIAKLKTPIVENLQEVSESESAVVWGEVSEGIVTNNWEKAREAKRDVEEKQRESLRKRKASGQSWIPKHFSVARTGKDWDCVPLQPTVPRAPIVVPL | soluble |
| MFHCPLCQHAAHARTSRYITDTTKERYHQCQNVNCSATFITYESVQRYIVKPGEVHVVRPHPLPSGQQIMWM | soluble |
| MGSDKIHHHHHHMPGLPPPAVEPAVTSIKQEDLIQSVADALQYISYYHPVDYIKNLSAAYEREESPAAKDAIAQILINSRMCAEGHRPICQDTGIVTVFLEIGMNVRWDDATMGVEDMVNEGVRRAYNHPDNKLRASVLADPAGKRANTKDNTPAVVSTKIVPGDHLEVIVAAKGGGSEAKSKFAMLNPSDSIVDWVLKTVPTMGAGWCPPGMLGIGIGGTAEKAMLLAKEALMEPIDIVDLQARGASNRAEELRLELYEKVNALGIGAQGLGGLTTVLDIKVKDYPTHAANLPVALIPNCAATRHAHFTLDGSGPVMLDPPSLEDWPKLTYNPTNARRVNLDTITREEVASFKPGEVVLLNGKLLTGRDAAHKRMIDMLNRGETLPVDFTNRFIYYVGPVDPVRDEVVGPAGPTTATRMDKFTRQMLEQTGLLGMVGKSERGDAAIDAIRDNKAVYLMAVGGSAYLVSKAIKAARVLAFEDLGMEAIYEFEVKDMPVTVAVDSTGESVHKTGPRLWQSRIGKIPVVVE | not soluble |
| MGSDKIHHHHHHMIERKRYVTMKGHRGGLAVYVNERCSVDEFLDDLELTLADKSVENGRAVPITFFFGRRYVDEGVVTAVESIVARHDSFSFNGYDSECLTKDEAKALYGERTFHYFGGTARSGHVVDVEGSIVVIGDINPGAVVHATGSIYCLGALRGTVHAGKGGNHQAVIAASVLQPKWISISDFVYEDPDDAPIQALDMGCAFVGETGVEFSRLQTVPLARMDQFAIDSERG | not soluble |
| MRKTKTEALKTKEHLMLAALETFYRKGIARTSLNEIAQAAGVTRGALYWHFKNKEDLFDALFQRICDDIENCIAQDAEDAEGGSWAVFRHTLLHFFERLQSNDIYYKFHNILFLKCEHTEQNAAVIAIARKHQAIWREKITAVLTEAVENQDLADDLDKETAVIFIKSTLDGLIWRWFSSCERFDLGKTAPRIIGIMMDNLENHPDLRRK | soluble |
| MSDSASNTENSIQIEIFPSRILSPETAQKLLVELSQVDGILRVMIQGNRLPEKVGYGPGTGEKVEHPLRKPIQIGGQVIELRVSVGRIRLEVLNAEVKENVRAVCEKMLPFSFEFREGHFLRRKPTVTDYAKLGPEADPRLLGMVDPKAKINQLVFIEKQEKEDDEDKDELEHHHHHH | soluble |
| MGSDKIHHHHHHMSAFSVEKIGLQDSQQFSKLFIDYLAQQEHIQPLYTFYPDMAGLETAIEKRSKQPINRTVLVERLKAQYKDLPVSEKVQQNIERLASEHTFTITTGHQLCLGTGPLYLILKTLSCVKLCEALKTKHADNEFVPVFWMASEDHDAAEINHFYVFGKKYTWETTQTGAVGRFTTTGISEVLETIKDIPAWLKDAYQSSVTLAEATRKVMHQLFAEYGVVVIDGDDAALKKEFTAVIEKELFEQPAVAVMNQTNRSIERHGYSIQVNPRDINLFYVKDSLRERIEKQGERFVVLHTDVSFSAGEIKKEVADHPERFSPNVVLRPLYESTILPDIAYVGGPGEIAYWLQLKEVFAVYNTFLPAIFPRMFSGVITKQQCVKLEKAHVTVAELFLSEFDLKQVVVSRSIQEEISIEAEAGKITAAFDTIASIAATVDGSLQSWAQAEKAKALKQLEDIEKKLRKAEERKHDDVIKSVLGIRDKILPNGKLQERQESVFTFLVNDAQLIEKLYQSLDPCTFNIQMCCYE | not soluble |
| MGSDKIHHHHHHMAPMKIGLILEGTYPYVTGGVSNWVHTLLTNLPEFEFEIYHLKAVTEPQTIKYKIPENVTAVHELNIFGDFESDSSQKANLESLERIVSQLSIERDIRSIVSFAIDFIRENAGKNVRKMLKTKGFWNILLKIYEEFFSERGLTEFYWMIMNLFLPVVNVLQFVPNRCDLFHVPSTGYASLVGMNGKFVHDVPLVITEHGIYHKEREREIILSTWVPDAYKPMWIELFRIISMIAYRVSDALTTLYRKNQIYQLELGADPEKMFIIPNGINVEEYDLPPEKHEGFVVGFVGRVARIKDLKTAIRAISIVKEVVGEKLTFLIIGPVDAEDYLAECKRLVRVLRLEDTVEFLGPQNVKEYYPKFDLLLLSSVSEGQPLVILEAMAAGVPIVATDVGACRDIIYDKDGQCGIVVPPKDHLSMSKAIIKLYEDKELRDTFSKNAKKVVQKYRVETMIEKYRNLYLSLTSKKTVSTV | not soluble |
